From US20250320312A1 (OXITOPE PHARMA B V, published 2025)

Columns and labels:
Assay in all cases: scFv ELISA
[1] = target: T1, Peptide 4: Biotin-AGGGGSGGGGSGGGGSAAA-Tyr-acid (N-terminal biotin; C-terminal acid)
T1 construct: control peptide without PC
T1 peptide: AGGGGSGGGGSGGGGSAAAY
Method in brief: (§1)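 Bound scFv was read as OD450 after HRP–anti-V5 detection, TMB development and HCl stop. PPE with BSA was incubated 1 h at RT on BSA-blocked wells coated overnight at 4° C. with peptide, or on streptavidin wells loaded 1 h with biotinylated PC-peptides at 1 μg/mL.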

[2] = target: T2, Peptide 8: Biotin-AEAAAKEAAAKEAAAKEAAAKAAA-Tyr-acid (N-terminal biotin; C-terminal acid)
T2 construct: control peptide without PC
T2 peptide: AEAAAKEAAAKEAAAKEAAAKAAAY
Method in brief: as §1

BSA = BSA (UniProt P02769)
BSA, sequence (P02769 25-607 limits assumed): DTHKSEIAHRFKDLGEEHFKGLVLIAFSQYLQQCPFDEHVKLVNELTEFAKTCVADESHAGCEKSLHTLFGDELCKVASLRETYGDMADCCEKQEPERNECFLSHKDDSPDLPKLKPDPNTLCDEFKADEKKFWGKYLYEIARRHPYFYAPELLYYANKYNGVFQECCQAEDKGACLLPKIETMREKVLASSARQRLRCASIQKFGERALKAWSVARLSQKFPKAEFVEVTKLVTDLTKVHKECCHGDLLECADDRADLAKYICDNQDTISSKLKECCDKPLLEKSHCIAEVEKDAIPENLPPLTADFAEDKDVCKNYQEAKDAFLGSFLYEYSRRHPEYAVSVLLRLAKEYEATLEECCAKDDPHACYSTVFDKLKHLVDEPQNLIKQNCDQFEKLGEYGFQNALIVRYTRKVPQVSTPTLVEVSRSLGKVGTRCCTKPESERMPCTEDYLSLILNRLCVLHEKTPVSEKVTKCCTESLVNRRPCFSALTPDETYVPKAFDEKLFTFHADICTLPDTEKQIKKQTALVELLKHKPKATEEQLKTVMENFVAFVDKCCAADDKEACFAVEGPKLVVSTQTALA

[3] = target: Peptide 5: Biotin-…-[Tyr(PC)]-acid
[4] = target: Peptide 1: Biotin-…-[Tyr(PC)]-acid
[5] = target: T3, Peptide 4: Biotin-AGGGGSGGGGSGGGGSAAA-Tyr-acid (N-terminal biotin; C-terminal acid)
T3 construct: Control peptide without PC
T3 peptide: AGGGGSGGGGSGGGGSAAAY
Method in brief: as §1

[6] = target: T4, Peptide 8: Biotin-AEAAAKEAAAKEAAAKEAAAKAAA-Tyr-acid (N-terminal biotin; C-terminal acid)
T4 construct: Control peptide without PC
T4 peptide: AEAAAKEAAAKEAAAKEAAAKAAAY
Method in brief: as §1

B1: PcOxP_DB03_E08 (scFv, V domains shown)
VH: EVQLLESGGGLVQPGGSLRLSCAASGFTFSSFYMEWVRQAPGKGLEWVAASRNAANDYTTEYADSVKGRFTISRDNSKNTLYLQMNSLRAEDTAVYYCARDYYGSSYWYFDLWGQGTLVTVSS
VL: DIQMTQSPSSLSASVGDRVTITCTASESLYSSKHKVHYLAWYQQKPGKAPKLLIYGASNRYIGVPSRFSGSGSGTDFTLTISSLQPEDFATYYCAQFYFYPLTFGGGTKVEIK
notes: scFv in periplasmic extract
- OD450 [1]: 0.05 OD450
- OD450 [2]: 0.05 OD450
- OD450 (BSA): 0.09 OD450
- OD450 [3]: 0.92 OD450
- OD450 [4]: 0.87 OD450

B2: PcOxP_DB03_E09 (scFv, V domains shown)
VH: EVQLLESGGGLVQPGGSLRLSCAASGFTASDFYMEWVRQAPGKGLEWVAASRNKANDQTTEYADSVKGRFTISRDNSKNTLYLQMNSLRAEDTAVYYCARDYYGSSYWYFDSWGQGTLVTVSS
VL: DIQMTQSPSSLSASVGDRVTITCTASESLYSSKHKVHYLAWYQQKPGKAPKLLIYGASNRQSGVPSRFSGSGSGTDFTLTISSLQPEDFATYYCAQFYSYPLTFGGGTKVEIK
notes: scFv in periplasmic extract
- OD450 [1]: 0.05 OD450
- OD450 [2]: 0.05 OD450
- OD450 (BSA): 0.08 OD450
- OD450 [3]: 0.72 OD450
- OD450 [4]: 0.39 OD450

B3: PcOxP_DB03_F01 (scFv, V domains shown)
VH: EVQLLESGGGLVQPGGSLRLSCAASGFTFNDFYMEWVRQAPGKGLEWVAASRNKANDYTTEYADSVKGRFTISRDNSKNTLYLQMNSLRAEDTAVYYCARDYYGSSYWYFDVWGQGTLVTVSS
VL: DIQMTQSPSSLSASVGDRVTITCEASESLYSSKHKVHYLAWYQQKPGKAPKLLIYGASNRLIGVPSRFSGSGSGTDFTLTISSLQPEDFATYYCAQFYEYPLTFGGGTKVEIK
notes: scFv in periplasmic extract
- OD450 [1]: 0.05 OD450
- OD450 [2]: 0.05 OD450
- OD450 (BSA): 0.09 OD450
- OD450 [3]: 0.8 OD450
- OD450 [4]: 0.58 OD450

B4: PcOxP_DB03_F10 (scFv, V domains shown)
VH: EVQLLESGGGLVQPGGSLRLSCAASGFTFSDHYMEWVRQAPGKGLEWVAASRNSGNSYTTEYADSVKGRFTISRDNSKNTLYLQMNSLRAEDTAVYYCARDYYGSSYWYFDVWGQGTLVTVSS
VL: DIQMTQSPSSLSASVGDRVTITCTASESLYSSKHSVHYLAWYQQKPGKAPKLLIYGASNRFIGVPSRFSGSGSGTDFTLTISSLQPEDFATYYCAQFYSYPLTFGGGTKVEIK
notes: scFv in periplasmic extract
- OD450 [1]: 0.05 OD450
- OD450 [2]: 0.07 OD450
- OD450 (BSA): 0.09 OD450
- OD450 [3]: 0.85 OD450
- OD450 [4]: 0.65 OD450

B5: PcOxP_DB03_G02 (scFv, V domains shown)
VH: EVQLLESGGGLVQPGGSLRLSCAASGFTFSDGYIEWVRQAPGKGLEWVAASRNKANDYTTEYADSVKGRFTISRDNSKNTLYLQMNSLRAEDTAVYYCARDYYGSSYWYFDVWGQGTLVTVSS
VL: DIQMTQSPSSLSASVGDRVTITCTASEELYSSKHKVHYLAWYQQKPGKAPKLLIYGASNRYIGVPSRFSGSGSGTDFTLTISSLQPEDFATYYCAQFYSYPLTFGGGTKVEIK
notes: scFv in periplasmic extract
- OD450 [1]: 0.04 OD450
- OD450 [2]: 0.05 OD450
- OD450 (BSA): 0.07 OD450
- OD450 [3]: 1.59 OD450
- OD450 [4]: 1.33 OD450

B6: PcOxP_DB03_G03 (scFv, V domains shown)
VH: EVQLLESGGGLVQPGGSLRLSCAASGFTSSDFYMEWVRQAPGKGLEWVAASRNKANDYTTEYADSVKGRFTISRDNSKNTLYLQMNSLRAEDTAVYYCARDYYGSSYWYFDVWGQGTLVTVSS
VL: DIQMTQSPSSLSASVGDRVTITCTASQSISSSKHKVHYLAWYQQKPGKAPKLLIYGASNHYIGVPSRFSGSGSGTDFTLTISSLQPEDFATYYCAQFYSYPLTFGGGTKVEIK
notes: scFv in periplasmic extract
- OD450 [1]: 0.05 OD450
- OD450 [2]: 0.08 OD450
- OD450 (BSA): 0.08 OD450
- OD450 [3]: 1.8 OD450
- OD450 [4]: 1.57 OD450

B7: PcOxP_DB03_G06 (scFv, V domains shown)
VH: EVQLLESGGGLVQPGGSLRLSCAASGFTFSDFYMEWVRQAPGKGLEWVAASRNKANDYTTEYADSVKGRFTISRDNSKNTLYLQMNSLRAEDTAVYYCARDYYGSSYWYFDVWGQGTLVTVSS
VL: DIQMTQSPSSLSASVGDRVTITCTASESLYSSKHKVHYLAWYQQKPGKAPKLLIYGASNRYIGVPSRFSGSGSGTDFTLTISSLQPEDFATYYCAQFYEYPLTFGGGTKVEIK
notes: scFv in periplasmic extract
- OD450 [1]: 0.06 OD450
- OD450 [2]: 0.06 OD450
- OD450 (BSA): 0.1 OD450
- OD450 [3]: 2.01 OD450
- OD450 [4]: 2.48 OD450

B8: PcOxP_DB03_G07 (scFv, V domains shown)
VH: EVQLLESGGGLVQPGGSLRLSCAASGFTFSDHYMEWVRQAPGKGLEWVAASRNKANDYTTEYADSVKGRFTISRDNSKNTLYLQMNSLRAEDTAVYYCARDYYGQSYWYFDVWGQGTLVTVSS
VL: DIQMTQSPSSLSASVGDRVTITCTASESLYSSKHKVHYLAWYQQKPGKAPKLLIYGASNRYIGVPSRFSGSGSGTDFTLTISSLQPEDFATYYCAQFYSYPLTFGGGTKVEIK
notes: scFv in periplasmic extract
- OD450 [1]: 0.06 OD450
- OD450 [2]: 0.05 OD450
- OD450 (BSA): 0.1 OD450
- OD450 [3]: 1.67 OD450
- OD450 [4]: 2.18 OD450

B9: PcOxP_DB04_G05 (scFv, V domains shown)
VH: EVQLLESGGGLVQPGGSLRLSCAASGFTFSDFYMEWVRQAPGKGLEWVAASRNKANDYTTEYADSVKGRFTISRDNSKNTLYLQMNSLRAEDTAVYYCARDFYGSSYWYFDVWGQGTLVTVSS
VL: DIVMTQSPDSLAVSLGERATINCTASESLYSSKHKVHYLAWYQQKPGQPPKLLIYGASNRYIGVPDRFSGSGSGTDFTLTISSLQAEDVAVYYCAQFYSYPLTFGGGTKVEIK
notes: scFv in periplasmic extract
- OD450 [5]: 0.05 OD450
- OD450 [6]: 0.05 OD450
- OD450 (BSA): 0.07 OD450
- OD450 [3]: 1.67 OD450
- OD450 [4]: 1.2 OD450

B10: PcOxP_DB02_E12 (scFv, V domains shown)
VH: EVQLLESGGGLVQPGGSLRLSCAASGFGFSDFYMEWVRQAPGKGLEWVAASRNKANDYTTEYADSVKGRFTISRDNSKNTLYLQMNSLRAEDTAVYYCARDYYGSSYWYFDVWGQGTLVTVSS
VL: DIVMTQSPDSLAVSLGERATINCTASESLYSSKHKVHYLAWYQQKPGQPPKLLIYGASNRYIGVPDRFSGSGSGTDFTLTISSLQAEDVAVYYCAEFYSYPLTFGGGTKVEIK
notes: scFv in periplasmic extract
- OD450 [5]: 0.05 OD450
- OD450 [6]: 0.06 OD450
- OD450 (BSA): 0.06 OD450
- OD450 [3]: 0.58 OD450
- OD450 [4]: 0.26 OD450

B11: PcOxP_DB02_F04 (scFv, V domains shown)
VH: EVQLLESGGGLVQPGGSLRLSCAASGFTGSDFYMEWVRQAPGKGLEWVAASRNSGNSYTTAYADSVKGRFTISRDNSKNTLYLQMNSLRAEDTAVYYCARDYFGSSYWYFDVWGQGTLVTVSS
VL: DIVMTQSPDSLAVSLGERATINCTASESLYSSKHKVHYLAWYQQKPGQPPKLLIYGASNRYIGVPDRFSGSGSGTDFTLTISSLQAEDVAVYYCAQFYSYPLTFGGGTKVEIK
notes: scFv in periplasmic extract
- OD450 [5]: 0.04 OD450
- OD450 [6]: 0.05 OD450
- OD450 (BSA): 0.09 OD450
- OD450 [3]: 0.74 OD450
- OD450 [4]: 0.47 OD450

B12: PcOxP_DB02_F06 (scFv, V domains shown)
VH: EVQLLESGGGLVQPGGSLRLSCAASGFTFSDEYMEWVRQAPGKGLEWVAASRNKANDFTTEYADSVKGRFTISRDNSKNTLYLQMNSLRAEDTAVYYCARDFYGSSYWYFDVWGQGTLVTVSS
VL: DIVMTQSPDSLAVSLGERATINCTASESIYSSKHKVHYLAWYQQKPGQPPKLLIYGASNRYIGVPDRFSGSGSGTDFTLTISSLQAEDVAVYYCAQFYSYPLTFGGGTKVEIK
notes: scFv in periplasmic extract
- OD450 [5]: 0.04 OD450
- OD450 [6]: 0.04 OD450
- OD450 (BSA): 0.06 OD450
- OD450 [3]: 0.45 OD450
- OD450 [4]: 0.16 OD450

B13: PcOxP_DB01_H08 (scFv, V domains shown)
VH: EVQLLESGGGLVQPGGSLRLSCAASGFTHSDFYMEWVRQAPGKGLEWVAASRNKANDYTTEYADSVKGRFTISRDNSKNTLYLQMNSLRAEDTAVYYCARDYYGSSYWYFDVWGQGTLVTVSS
VL: DIQMTQSPSSLSASVGDRVTITCRASESISSSKHKHYLAWYQQKPGKAPKLLIYGASNRYIGVPSRFSGSGSGTDFTLTISSLQPEDFATYYCAQFYVYPLTFGGGTKVEIK
notes: scFv in periplasmic extract
- OD450 [1]: 0.06 OD450
- OD450 [2]: 0.06 OD450
- OD450 (BSA): 0.09 OD450
- OD450 [3]: 0.85 OD450
- OD450 [4]: 0.56 OD450
